Laboratory results: patent US20040014148A1 (RIGEL PHARMACEUTICALS, published 2004)
No end group written: not given here.

B1: peptide DL03wt (peptide)
peptide: LYTSILLHGATTASMTKPLA
modifications: also: expressed as BFP fusion (BFP, alpha-helical linker, peptide) in GAL4 bait vector, fusion sequences not given here

Tests used:
[1] = target: T1, human chloride intracellular channel 1 (human, UniProt O00299 1-241); test: cell-based or functional assay
[2] = target: T1, human chloride intracellular channel 1; test: cell-based or functional assay; remark: listed apart in the source

Row | Binder | endogenous epsilon inhibition ratio (TAQMAN quantitative PCR, +IL-4/+Dox to +IL-4/-Dox) [1] | reporter ratio (original library clone screen, A5T4 cells) [1] | Reporter Ratio (A5T4 reporter line, IL-4 induced germline epsilon transcription) [2]
1 | B1 | 2.11 | 1.32 | 1.5
2 | LYTSILLHGATTASMTKPAR [peptide DL03LA] | – | – | 1.22
3 | LYTSAALHGATTASMTKPLA [peptide DL03IL] | – | – | 1.16
4 | LYTSILLHGATTASMTAALA [peptide DL03KP] | – | – | 1.77
